Reference: patent publication US20240115720A1 (published 2024)
Like-named read-outs stand apart in the source and are kept apart here.

B1: 10-O18-A (antibody, V domains shown)
VH: QVQLQESGPGLVKPSETLSLTCTVSGGSINSYYWSWIRQPPGKGLEWIGYIFYSGITNYNPSLKSRVTISLDTSKNQFSLKLSSVTAADTAVYYCARIGVAGFYFDYWGQGTLVTVSS
VL: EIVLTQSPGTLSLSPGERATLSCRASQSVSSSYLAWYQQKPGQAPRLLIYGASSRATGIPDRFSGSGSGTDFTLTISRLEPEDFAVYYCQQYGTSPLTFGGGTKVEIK
B2: 2-C8-A (antibody, V domains shown)
VH: EVQLVESGGGLVQPGGSQRLSCAASGFTFSSYWMNWVRQAPGKGLEWVANIKEDGSEKYYVDSVKGRFTISRDNAKNSLYLQMNSLRAEDTAVYYCARDPGWAPFDYWGQGTLVTVSS
VL: DIQMSQSPSSLSASVGDRVTITCRASQGISNYLAWFQQKPGKAPKSLIYAASSLQSGVPSKFSGSGSGTDFTLAISSLQPEDFATYYCQQYNSFPYTFGQGTTLEIK
B3: 6-G23-F (antibody, V domains shown)
VH: QVQLVQSGAEVKKPGASVKVSCKASGYTFTSYYIHWVRQAPGQGLEWMGIIDPSDGSTNYAQKFQGRVTMTRDTSTSTVYMELSSLRSEDTAVYYCARDREYNYYGLDVWGQGTTVTVSS
VL: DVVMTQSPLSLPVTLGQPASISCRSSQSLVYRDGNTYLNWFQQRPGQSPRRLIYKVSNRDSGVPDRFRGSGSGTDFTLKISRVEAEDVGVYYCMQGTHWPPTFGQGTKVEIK
B4: 7-I1-B (antibody, V domains shown)
VH: EVQLVESGGGLVKPGGSLRLSCAASGFTFSNTWMSWVRQAPGKGLEWVGRIKSKSDGGTTDYAAPVKGRFTISRDDSKNTLYLQMNSLKTEDTAVYYCTQYYWNSFDYWGQGTLVTVSS
VL: not shown

Experiments:
Experiment in all cases: BLI (Octet HTX)
[1] = biological target: T1, Recombinant Human DLL3 Protein (amino acids Ala27-Ala479, cat #9749-DL, R&D Systems) (UniProt Q9NYJ7 27-479)
T1 chain: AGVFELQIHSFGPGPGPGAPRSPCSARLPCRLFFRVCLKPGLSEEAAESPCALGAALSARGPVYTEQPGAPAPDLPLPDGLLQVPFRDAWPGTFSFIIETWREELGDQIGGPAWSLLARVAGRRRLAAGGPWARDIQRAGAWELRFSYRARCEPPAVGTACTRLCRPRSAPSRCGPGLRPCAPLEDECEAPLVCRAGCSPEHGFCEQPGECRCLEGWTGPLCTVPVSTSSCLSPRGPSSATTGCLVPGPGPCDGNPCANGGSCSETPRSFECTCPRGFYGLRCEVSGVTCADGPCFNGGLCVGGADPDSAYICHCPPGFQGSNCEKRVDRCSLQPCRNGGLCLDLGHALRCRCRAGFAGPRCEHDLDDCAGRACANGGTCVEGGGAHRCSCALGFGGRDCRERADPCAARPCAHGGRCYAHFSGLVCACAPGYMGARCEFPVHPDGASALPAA

[2] = biological target: T1, Recombinant Human DLL3 Protein (amino …)
[3] = biological target: T1, Recombinant Human DLL3 Protein (amino …)

Row | Binder | Kd [1] [nM] | Kd [2] [nM] | Kd [3] [nM]
1 | B1 | 0.62 | 0.602 | 
2 | B2 | 0.668 | 0.668 | 
3 | B3 | 0.16 |  | 0.16
4 | B4 | 0.68 |  | 0.686
